The nature of this data set: In vitro release of FITC-BSA from the fiber matrix into an infinite sink of 37° C. phosphate buffered saline. It counts as physicochemical. The conditions noted are these: polylactic glycolic acid fiber matrix. From the text: To construct the bioactive compound-loaded matrices, various concentrations of finely ground FITC-BSA were suspended in biodegradable polymer polylactic glycolic acid in 50:50 dimethyl formamide:tetrahydrofuran. Suspensions contained in a glass syringe with a capillary tip were electrospun into approximately 500 nm diameter fibers via an electrostatic based self-assembly process in which a high voltage electric field was generated between the oppositely charged polymer and a metallic collection screen. At a critical voltage the charge overcomes the surface tension of the deformed polymer drop at the needle tip, producing an ultrafine jet. The similarly charged fibers are splayed and during their passage to the screen, the solvent quickly evaporates so that dry fibers accumulate randomly on the screen forming a mesh matrix.
In vitro release of the FITC-BSA into an infinite sink of 37° C. phosphate buffered saline was also measured. This sink mimics in vivo conditions.
A 25% (w/v) solution of polylactic glycolic acid was prepared in a 50:50 mixture of dimethylformamide and tetrahydrofuran. […]
In vitro release of the FITC-BSA into an infinite sink of 37° C. phosphate buffered saline was measured. […] The amount of protein released was measured in the form of fluorescence of the FITC-BSA on a spectrophotofluorometer at an excitation wavelength of 495 nm and an emission wavelength of 513 nm.

For “FITC-BSA: fluorescently labeled bovine serum albumin dispersed between electrospun polylactic glycolic acid fibers of the matrix”, the “in vitro release profile of FITC-BSA” value is “release in the first 24 hours after initiation was dominant”. Besides, under “fluorescence readout”, the “duration of observed in vitro release of FITC-BSA” value is given as “over 120 hours”.

These data come from US20050158362A1, “Polymeric, fiber matrix delivery systems for bioactive compounds” (priority 2000, published 2005).
